Assay results published in patent US20050080234A1 (Takeda / Millennium, published 2005).
Numbering of substitutions follows the chain as printed. Read-outs that look alike come from different tables or passages of the source.

Legend:
Test in all cases: cell-based or functional assay
[1] = biological target: T1, mouse C140 receptor mutant 35Pro (mouse, UniProt P55086 32-399)
T1 sequence: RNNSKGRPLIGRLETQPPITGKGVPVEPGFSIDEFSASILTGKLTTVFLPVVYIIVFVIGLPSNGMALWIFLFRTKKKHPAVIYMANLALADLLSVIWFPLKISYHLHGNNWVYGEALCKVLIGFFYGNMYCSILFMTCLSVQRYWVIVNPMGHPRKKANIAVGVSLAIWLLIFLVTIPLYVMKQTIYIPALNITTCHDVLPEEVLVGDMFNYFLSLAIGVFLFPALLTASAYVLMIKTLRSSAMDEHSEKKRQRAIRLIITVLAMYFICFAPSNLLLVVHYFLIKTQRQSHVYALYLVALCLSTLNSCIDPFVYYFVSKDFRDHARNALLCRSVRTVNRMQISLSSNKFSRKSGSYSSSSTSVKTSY

[2] = biological target: T2, mouse C140 receptor mutant 35Arg (mouse, UniProt P55086 32-399)
T2 sequence: T1 sequence with P8R

[3] = biological target: T3, mouse C140 receptor mutant 35His (mouse, UniProt P55086 32-399)
T3 sequence: T1 sequence with P8H

[4] = biological target: T4, wild-type mouse C140 receptor (mouse, UniProt P55086 32-399)
T4 sequence: T1 sequence with P8S

[5] = biological target: T4, wild-type mouse C140 receptor; remark: listed apart in the source
[6] = biological target: T4, wild-type mouse C140 receptor; remark: listed apart in the source

| Molecule | Fold Increase in 45Ca [6] | other results |
| --- | --- | --- |
| trypsin (enzyme) | – | Fold increase in 45Ca [1]: 0 fold; Fold increase in 45Ca [2]: 0 fold; Fold increase in 45Ca [3]: 0 fold; Fold increase in 45Ca [4]: 6.6 fold |
| SLIGRL [agonist peptide SLIGRL] | 15 fold | Fold Increase in 45Ca [1]: 23 fold; Fold Increase in 45Ca [5]: 11 fold; Fold Increase in 45Ca [2]: 15 fold; Fold Increase in 45Ca [3]: 23 fold |
| SFFLRW [thrombin receptor agonist SFFLRW] | 1.7 fold | – |
| SLAGRL [peptide SLAGRL] | 0 fold | – |
| SLIGRA [peptide SLIGRA] | 8.5 fold | – |
| SLIGAL [peptide SLIGAL] | 0 fold | – |
| SLIARL [peptide SLIARL] | 4.3 fold | – |
| SAIGRL [peptide SAIGRL] | 0 fold | – |
| ALIGRL [peptide ALIGRL] | 1.3 fold | – |
